Results reported in IntAct's records for PubMed 25910212.

B1: Aspartoacylase (Homo sapiens), P45381 (parent)
chain: MTSCHIAEEHIQKVAIFGGTHGNELTGVFLVKHWLENGAEIQRTGLEVKPFITNPRAVKKCTRYIDCDLNRIFDLENLGKKMSEDLPYEVRRAQEINHLFGPKDSEDSYDIIFDLHNTTSNMGCTLILEDSRNNFLIQMFHYIKTSLAPLPCYVYLIEHPSLKYATTRSIAKYPVGIEVGPQPQGVLRADILDQMRKMIKHALDFIHHFNEGKEFPPCAIEVYKIIEKVDYPRDENGEIAAIIHPNLQDQDWKPLHPGDPMFLTLDGKTIPLGGDCTVYPVFVNEAAYYEKKEAFAKTTKLTLNAKSIRCCLH
partner: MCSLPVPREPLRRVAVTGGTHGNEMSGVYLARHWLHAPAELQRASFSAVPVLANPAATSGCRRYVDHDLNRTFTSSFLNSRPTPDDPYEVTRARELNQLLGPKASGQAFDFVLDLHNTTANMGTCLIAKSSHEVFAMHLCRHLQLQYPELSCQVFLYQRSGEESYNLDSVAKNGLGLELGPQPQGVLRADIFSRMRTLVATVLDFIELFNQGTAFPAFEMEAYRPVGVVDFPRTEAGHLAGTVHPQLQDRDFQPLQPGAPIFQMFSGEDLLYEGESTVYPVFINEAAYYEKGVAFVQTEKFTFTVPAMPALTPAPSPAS
B2: U4/U6 small nuclear ribonucleoprotein Prp31 (Homo sapiens), Q8WWY3 (parent)
chain: MSLADELLADLEEAAEEEEGGSYGEEEEEPAIEDVQEETQLDLSGDSVKTIAKLWDSKMFAEIMMKIEEYISKQAKASEVMGPVEAAPEYRVIVDANNLTVEIENELNIIHKFIRDKYSKRFPELESLVPNALDYIRTVKELGNSLDKCKNNENLQQILTNATIMVVSVTASTTQGQQLSEEELERLEEACDMALELNASKHRIYEYVESRMSFIAPNLSIIIGASTAAKIMGVAGGLTNLSKMPACNIMLLGAQRKTLSGFSSTSVLPHTGYIYHSDIVQSLPPDLRRKAARLVAAKCTLAARVDSFHESTEGKVGYELKDEIERKFDKWQEPPPVKQVKPLPAPLDGQRKKRGGRRYRKMKERLGLTEIRKQANRMSFGEIEEDAYQEDLGFSLGHLGKSGSGRVRQTQVNEATKARISKTLQRTLQKQSVVYGGKSTIRDRSSGTASSVAFTPLQGLEIVNPQAAEKKVAEANQKYFSSMAEFLKVKGEKSGLMST
partner: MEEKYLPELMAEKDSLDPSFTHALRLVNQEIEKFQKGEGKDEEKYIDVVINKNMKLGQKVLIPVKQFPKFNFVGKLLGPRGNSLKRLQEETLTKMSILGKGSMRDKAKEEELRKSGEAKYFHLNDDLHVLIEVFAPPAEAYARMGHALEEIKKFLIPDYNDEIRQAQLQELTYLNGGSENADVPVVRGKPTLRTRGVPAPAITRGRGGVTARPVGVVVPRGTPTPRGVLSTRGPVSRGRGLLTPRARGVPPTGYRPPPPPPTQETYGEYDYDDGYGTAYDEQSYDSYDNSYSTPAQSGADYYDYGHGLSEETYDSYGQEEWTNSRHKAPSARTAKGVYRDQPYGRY
B3: Ribonucleoside-diphosphate reductase subunit M2 B (Homo sapiens), Q7LG56 (parent)
chain: MGDPERPEAAGLDQDERSSSDTNESEIKSNEEPLLRKSSRRFVIFPIQYPDIWKMYKQAQASFWTAEEVDLSKDLPHWNKLKADEKYFISHILAFFAASDGIVNENLVERFSQEVQVPEARCFYGFQILIENVHSEMYSLLIDTYIRDPKKREFLFNAIETMPYVKKKADWALRWIADRKSTFGERVVAFAAVEGVFFSGSFAAIFWLKKRGLMPGLTFSNELISRDEGLHCDFACLMFQYLVNKPSEERVREIIVDAVKIEQEFLTEALPVGLIGMNCILMKQYIEFVADRLLVELGFSKVFQAENPFDFMENISLEGKTNFFEKRVSEYQRFAVMAETTDNVFTLDADF
partner: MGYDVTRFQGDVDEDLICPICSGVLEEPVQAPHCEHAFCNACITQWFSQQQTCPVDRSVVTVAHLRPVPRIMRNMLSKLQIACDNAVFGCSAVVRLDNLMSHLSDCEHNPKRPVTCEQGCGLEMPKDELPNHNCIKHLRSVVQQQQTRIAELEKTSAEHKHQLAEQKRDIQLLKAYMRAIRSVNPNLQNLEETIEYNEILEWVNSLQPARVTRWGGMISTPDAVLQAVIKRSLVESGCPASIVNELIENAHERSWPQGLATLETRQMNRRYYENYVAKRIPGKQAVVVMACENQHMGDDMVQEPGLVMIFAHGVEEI
B4: Keratin, type II cytoskeletal 6A (Homo sapiens), P02538 (parent)
chain: MASTSTTIRSHSSSRRGFSANSARLPGVSRSGFSSVSVSRSRGSGGLGGACGGAGFGSRSLYGLGGSKRISIGGGSCAISGGYGSRAGGSYGFGGAGSGFGFGGGAGIGFGLGGGAGLAGGFGGPGFPVCPPGGIQEVTVNQSLLTPLNLQIDPTIQRVRAEEREQIKTLNNKFASFIDKVRFLEQQNKVLETKWTLLQEQGTKTVRQNLEPLFEQYINNLRRQLDSIVGERGRLDSELRGMQDLVEDFKNKYEDEINKRTAAENEFVTLKKDVDAAYMNKVELQAKADTLTDEINFLRALYDAELSQMQTHISDTSVVLSMDNNRNLDLDSIIAEVKAQYEEIAQRSRAEAESWYQTKYEELQVTAGRHGDDLRNTKQEIAEINRMIQRLRSEIDHVKKQCANLQAAIADAEQRGEMALKDAKNKLEGLEDALQKAKQDLARLLKEYQELMNVKLALDVEIATYRKLLEGEECRLNGEGVGQVNISVVQSTVSSGYGGASGVGSGLGLGGGSSYSYGSGLGVGGGFSSSSGRAIGGGLSSVGGGSSTIKYTTTSSSSRKSYKH
partner: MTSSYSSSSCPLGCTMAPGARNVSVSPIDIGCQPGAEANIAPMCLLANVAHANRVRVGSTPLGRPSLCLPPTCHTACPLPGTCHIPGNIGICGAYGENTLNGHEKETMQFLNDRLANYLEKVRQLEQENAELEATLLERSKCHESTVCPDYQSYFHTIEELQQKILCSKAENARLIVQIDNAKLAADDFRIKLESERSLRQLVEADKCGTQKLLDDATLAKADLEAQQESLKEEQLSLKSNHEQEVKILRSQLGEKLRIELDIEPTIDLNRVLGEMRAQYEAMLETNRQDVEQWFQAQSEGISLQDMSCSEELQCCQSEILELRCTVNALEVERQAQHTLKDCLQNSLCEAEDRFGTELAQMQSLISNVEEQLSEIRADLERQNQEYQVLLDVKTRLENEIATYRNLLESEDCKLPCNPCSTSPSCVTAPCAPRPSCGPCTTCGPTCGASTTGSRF

Variants of: B1
Conditions: with acy3_human ACY3, Q96HD9

| effect of a mutation on the interaction | Variant |
| --- | --- |
| disrupting interaction strength | I143F |

Variants of: B1
Conditions: with acy3_human ACY3, Q96HD9
Remark: another data set of the same source

| effect of a mutation on the interaction | Variant |
| --- | --- |
| disrupting interaction strength | M195R |
| disrupting interaction strength | E24G |
| disrupting interaction strength | E285A |

Variants of: B2
Conditions: with khdr3_human KHDRBS3, O75525

| effect of a mutation on the interaction | Variant |
| --- | --- |
| with no effect | L107V |

Variants of: B3
Conditions: with rnf41_human RNF41, Q9H4P4

| effect of a mutation on the interaction | Variant |
| --- | --- |
| with no effect | C236F |
| disrupting interaction strength | W64R |

Variants of: B4
Conditions: with krt38_human KRT38, O76015

| effect of a mutation on the interaction | Variant |
| --- | --- |
| with no effect | V523F |
| with no effect | F249L |
| with no effect | N21S |
| with no effect | T552S |

Variants of: B4
Conditions: with krt38_human KRT38, O76015
Remark: another data set of the same source

| effect of a mutation on the interaction | Variant |
| --- | --- |
| with no effect | A463P |
| with no effect | I462S |
| with no effect | N171K |
| with no effect | F174V |
